Where two headings read alike, the source gives them in different places.
Key:
[1] = system: SIVmac; experiment: CPSF6-358 restriction assay, SIVmac; type: cell-based; conditions: HEK293T expressing CPSF6-358 vs vector, Luc virus, range of virus inocula (Fig. 5C)
Experimental: (§1) Vector control HEK293T cells were infected with GFP viruses at approximate MOIs of 0.4 to 0.5 alongside cells expressing CPSF6-358 (Fig. 5A).
(§2) HEK293T cells were cultured at 37°C in Dulbecco’s modified Eagle’s medium containing 10% (vol/vol) fetal bovine serum (FBS), 100 IU/ml penicillin, and 100 μg/ml streptomycin (DMEM) in humidified incubators in the presence of 5% CO2.
(§3) Single-cycle GFP and Luc reporter viruses were produced by cotransfection of HEK293T cells in 10-cm dishes with 15 μg total of various ratios of virus production plasmids using PolyJet DNA transfection reagent (SignaGen Laboratories). […] Concentrations of retroviral particles in mU/ml were determined using a TaqMan-based product-enhanced reverse transcriptase (Taq-PERT) real-time PCR assay ([80]).
(§4) Infections were conducted in duplicate in 24-well plates (10^5 cells/well). […] GFP reporter viral MOIs were determined as percentage of GFP-positive cells using a FACSCanto flow cytometer (BD Biosciences). […] Cell lysates were centrifuged at 17,500 × g for 8 min, and supernatants were analyzed in triplicate for luciferase activity. Relative light units (RLU), determined by luminometer (Berthold Technologies), were normalized to total protein concentration as measured by Pierce BCA protein assay kit (Thermo Fisher Scientific).

[2] = system: FIV; experiment: CPSF6-358 restriction assay, FIV; type: cell-based; conditions: HEK293T expressing CPSF6-358 vs vector control, GFP virus, MOI 0.4 to 0.5, 48 h (Fig. 5B)
Experimental: as §1, §2, §3, §4

[3] = system: MLV; experiment: CPSF6-358 restriction assay, MLV; type: cell-based; conditions: HEK293T expressing CPSF6-358 vs vector control, GFP virus, MOI 0.4 to 0.5, 48 h (Fig. 5B)
Experimental: as §1, §2, §3, §4

[4] = system: BIV; experiment: CPSF6-358 restriction assay, BIV; type: cell-based; conditions: HEK293T expressing CPSF6-358 vs vector control, GFP virus, MOI 0.4 to 0.5, 48 h (Fig. 5B)
Experimental: as §1, §2, §3, §4

[5] = system: EIAV; experiment: CPSF6-358 restriction assay, EIAV; type: cell-based; conditions: HEK293T expressing CPSF6-358 vs vector control, GFP virus, MOI 0.4 to 0.5, 48 h (Fig. 5B)
Experimental: as §1, §2
(§5) Infections were conducted in duplicate in 24-well plates (10^5 cells/well). After 6 to 8 h, medium was replaced with fresh DMEM or RPMI, and cells were harvested at 48 h from the start of the experiment. GFP reporter viral MOIs were determined as percentage of GFP-positive cells using a FACSCanto flow cytometer (BD Biosciences).

[6] = system: primate lentiviruses; experiment: CPSF6-358 restriction assay, primate lentiviruses; type: cell-based; conditions: HEK293T expressing CPSF6-358 vs vector control, GFP viruses, MOI 0.4 to 0.5, 48 h (Fig. 5B)
Experimental: as §1, §2, §5

[7] = system: HIV-1; conditions: HEK293T expressing CPSF6-358 vs vector, Luc virus, range of virus inocula (Fig. 5C)
Experimental: as §1, §2, §3, §4

[8] = system: HIV-2; design: method as in PMID 20227665; conditions: cited from earlier work
[9] = system: SIVmac; design: method as in 2 sources, ref 33 = [33]; PMID 20227665; doi:10.1016/j.chom.2010.02.007; 33. Lee K , Ambrose Z , Martin TD , Oztop I , Mulky A , Julias JG , Vandegraaff N , Baumann JG , Wang R , Yuen W , Takemura T , Shelton K , Taniuchi I , Li Y , Sodroski J , Littman D , Coffin J , Hugh ||| ref 35 = [35]; PMID 24130490; doi:10.1371/journal.ppat.1003693; 35. Matreyek KA , Yücel SS , Li X , Engelman A 2013 Nucleoporin NUP153 phenylalanine-glycine motifs engage a common binding pocket within the HIV-1 capsid protein to mediate lentiviral infectivity . P; conditions: cited from earlier work
[10] = system: SIVmne; design: method as in PMID 20227665; conditions: cited from earlier work
[11] = system: HIV-1; conditions: cited from earlier work

B1: CPSF6-358 (protein, UniProt Q16630 1-358, looked up, fragment)
chain: MADGVDHIDIYADVGEEFNQEAEYGGHDQIDLYDDVISPSANNGDAPEDRDYMDTLPPTVGDDVGKGAAPNVVYTYTGKRIALYIGNLTWWTTDEDLTEAVHSLGVNDILEIKFFENRANGQSKGFALVGVGSEASSKKLMDLLPKRELHGQNPVVTPCNKQFLSQFEMQSRKTTQSGQMSGEGKAGPPGGSSRAAFPQGGRGRGRFPGAVPGGDRFPGPAGPGGPPPPFPAGQTPPRPPLGPPGPPGPPGPPPPGQVLPPPLAGPPNRGDRPPPPVLFPGQPFGQPPLGPLPPGPPPPVPGYGPPPGPPPPQQGPPPPPGPFPPRPPGPLGPPLTLAPPPHLPGPPPGAPPPAPHVN
With B1 the “restriction of infection, in words” value [1] was “restriction of HIV-1 and SIVmac-Luc viruses was observed across a range of virus inocula”, the “restriction of infection, in words” value [2] was “did not significantly restrict FIV infection” and the “restriction of infection, in words” value [3] was “MLV-GFP similarly infected control and CPSF6-358-expressing cells”. For the same molecule, the “restriction of infection, in words” value [4] was “infection by BIV was similarly unaffected”, the “restriction of infection, in words” value [5] was “failed to appreciably restrict EIAV infection” and the “restriction of infection, in words” value [6] was “potently restricted infection by primate lentiviruses”. The “restriction of infection, in words” value [7] was “restriction of HIV-1 and SIVmac-Luc viruses was observed across a range of virus inocula”, the “restriction of infection, in words” value [8] was “restricted infection” and the “restriction of infection, in words” value [9] was “restricted infection”. For the same molecule, the “restriction of infection, in words” value [10] was “restricted infection” and the “restriction of infection, in words” value [11] was “restricted infection”.
